The results in this text go back to US20230174626A1.

Test [1] deals with HCMV Pentamer protein complex (gH/gL/UL128/UL130/UL131A) (Human Cytomegalovirus (HCMV)). The test is described as follows: SPR Biacore 8K+, single-cycle kinetics, IgG captured on Protein A chip, Pentamer as analyte, 1:1 fit.
Test [2] addresses HCMV gH/gL/gO protein complex (Human Cytomegalovirus (HCMV)). The test is described as follows: SPR Biacore 8K+, single-cycle kinetics, IgG captured on Protein A chip, gH/gL/gO as analyte, 1:1 fit. For orientation: Surface plasmon resonance follows binding to a sensor surface in real time, without labels.

HCMV Pentamer protein complex (gH/gL/UL128/UL130/UL131A) (Human Cytomegalovirus (HCMV)), sequence (Q6SW67 24-719, chain 1 of 4): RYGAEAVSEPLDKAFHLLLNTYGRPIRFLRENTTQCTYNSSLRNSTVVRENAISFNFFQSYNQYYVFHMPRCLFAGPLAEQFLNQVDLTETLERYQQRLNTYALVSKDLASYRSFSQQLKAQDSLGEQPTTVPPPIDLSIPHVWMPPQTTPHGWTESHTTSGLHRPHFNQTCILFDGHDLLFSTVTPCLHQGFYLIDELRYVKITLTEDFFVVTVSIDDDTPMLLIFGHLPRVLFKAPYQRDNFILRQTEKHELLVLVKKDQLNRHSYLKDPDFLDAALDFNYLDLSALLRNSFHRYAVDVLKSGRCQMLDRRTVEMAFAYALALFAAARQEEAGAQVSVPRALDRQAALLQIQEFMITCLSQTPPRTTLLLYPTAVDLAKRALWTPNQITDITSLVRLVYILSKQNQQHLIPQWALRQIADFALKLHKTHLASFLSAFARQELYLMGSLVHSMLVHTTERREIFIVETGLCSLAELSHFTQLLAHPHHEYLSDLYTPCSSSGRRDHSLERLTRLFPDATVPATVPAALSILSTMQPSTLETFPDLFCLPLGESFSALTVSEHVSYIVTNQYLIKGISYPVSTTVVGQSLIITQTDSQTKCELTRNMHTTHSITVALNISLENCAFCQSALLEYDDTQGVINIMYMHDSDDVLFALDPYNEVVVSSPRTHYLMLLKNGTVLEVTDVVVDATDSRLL
HCMV Pentamer protein complex (gH/gL/UL128/UL130/UL131A) (Human Cytomegalovirus (HCMV)), sequence (F5HCH8 31-278, chain 2 of 4, further chain): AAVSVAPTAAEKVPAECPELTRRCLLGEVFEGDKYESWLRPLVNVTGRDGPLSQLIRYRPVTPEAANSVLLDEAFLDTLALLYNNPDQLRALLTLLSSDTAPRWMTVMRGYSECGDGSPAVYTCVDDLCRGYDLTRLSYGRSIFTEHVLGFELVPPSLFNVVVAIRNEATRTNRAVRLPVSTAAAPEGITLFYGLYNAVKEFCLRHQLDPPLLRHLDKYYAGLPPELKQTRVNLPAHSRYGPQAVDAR
HCMV Pentamer protein complex (gH/gL/UL128/UL130/UL131A) (Human Cytomegalovirus (HCMV)), sequence (P16837 28-171, chain 3 of 4, further chain): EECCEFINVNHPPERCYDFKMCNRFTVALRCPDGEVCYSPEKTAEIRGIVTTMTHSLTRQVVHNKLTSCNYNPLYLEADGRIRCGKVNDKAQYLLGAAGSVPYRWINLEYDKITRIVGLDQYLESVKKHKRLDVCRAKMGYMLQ
HCMV Pentamer protein complex (gH/gL/UL128/UL130/UL131A) (Human Cytomegalovirus (HCMV)), sequence (F5HCP3 26-214, chain 4 of 4, further chain): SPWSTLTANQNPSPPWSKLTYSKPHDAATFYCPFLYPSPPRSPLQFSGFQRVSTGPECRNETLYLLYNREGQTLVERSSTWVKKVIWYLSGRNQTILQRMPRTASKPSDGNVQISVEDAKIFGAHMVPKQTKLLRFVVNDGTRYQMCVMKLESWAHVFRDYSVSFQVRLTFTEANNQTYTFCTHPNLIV

B1: humanized 2C7 mAb (antibody, human IgG1, kappa, V domains shown)
VH: EVQLQQSGPELEKPGASVKISCKASGYSFTGYNMNWVKQSNGKSLEWIGNIDPYFGGTSYNQKFKGKATLTVDKSSSTAYMELKSLTSEDSAVYYCARHYGYFPWFAYWGQGTLVTVSA
VL: DIVLTQSPASLAVSLGQRATISCRASESVDSSGNSFMHWYQQKPGQPPKLLIYRASNLESGIPARFSGSGSRTDFTLTINPVGADDVATYYCQQSNEDPWTFGGGTKLEIKR
As to B1, in test [1], the Kd – broadly, the free concentration of one partner at which half of the binding sites on the other are occupied at equilibrium, for simple one-to-one binding – is 0.721 nM; the koff (as a rule, the rate constant with which the complex falls apart) was found to be 0.000322 s⁻¹; the kon (usually a measure of how fast the partners come together) was found to be 447000 M⁻¹ s⁻¹. Moreover, in test [2], the Kd came to 1 nM, the koff amounted to 0.000416 s⁻¹ and the kon came to 415000 M⁻¹ s⁻¹.

B2: humanized 23C2 mAb (antibody, human IgG1, kappa, V domains shown)
VH: DVQLQESGPGLVKPSQSLSLTCSVTGYSIKSGYYWNWIRQFPGNKLEWMGYISYGGDFTYNPSLKNRISITRDTSKNQFFLKLNSVTTEDTATYFCVREPNWESYFDIWGAGTTVTVSS
VL: DIQMTQSPASLSASVGETVTITCRASDNIYSYLTWYHQKQGKSPHLLVYNAKTLPEGVPLRFSGTGSGTQFSLKINSLQPEDFGIYFCLHDYGFPRTFGGGTILEVKR
In test [1], B2 showed a Kd of 1.03 nM, a koff of 0.000285 s⁻¹ and a kon of 275000 M⁻¹ s⁻¹.

B3: humanized 26B6 mAb (antibody, human IgG1, kappa, V domains shown)
VH: EVQLVESGGGLVKPGGSLKLSCAASGFTITDYYIYWLRQTPEKKLEWVAAISDGGRYTDYPDSVKGRFTMSSDNAKTNLYLQMGSLQSDDTGMYYCARWASYGYHWYFDVWGAGTTVTVSS
VL: DIQMTQTTSSLSASLGDRVTISCSASQDISNYINWYQQKRDGTVKLLIYDSSSLHSGVPSRFSGSGSGTDYSLTISNLEPEDFATYFCQQYSNLPPTFGGGTNLEIKR
With B3, in test [1], the Kd amounted to 0.123 nM, the koff stood at 5.3e-05 s⁻¹ and the kon amounted to 432000 M⁻¹ s⁻¹.
